Literature values in article PMC3433420.
Read-outs that look alike come from different tables or passages of the source.

Experiments:
Conditions in all cases: cited from earlier work
GRB7 (Homo sapiens) [1] = target: GRB7 (Homo sapiens) (UniProt Q14451)
FER (Homo sapiens) = FER (Homo sapiens) (UniProt P16591)
FGR (Homo sapiens) = FGR (Homo sapiens) (UniProt P09769)
TENC1 (Homo sapiens) = TENC1 (Homo sapiens) (UniProt Q63HR2)
VAV3 (Homo sapiens) = VAV3 (Homo sapiens) (UniProt Q9UKW4)
LYN (Homo sapiens) = LYN (Homo sapiens) (UniProt P07948)
TNS4 (Homo sapiens) = TNS4 (Homo sapiens) (UniProt Q8IZW8)
VAV1 (Homo sapiens) = VAV1 (Homo sapiens) (UniProt P15498)
SLA (Homo sapiens) = SLA (Homo sapiens) (UniProt Q13239)
PIK3R1-N (Homo sapiens) = PIK3R1-N (Homo sapiens) (UniProt P27986)
PLCG1-C (Homo sapiens) = PLCG1-C (Homo sapiens) (UniProt P19174)
CRKL (Homo sapiens) [2] = target: CRKL (Homo sapiens) (UniProt P46109)
SHC1-PTB (Homo sapiens) = SHC1-PTB (Homo sapiens) (UniProt P29353)
CRK (Homo sapiens) = CRK (Homo sapiens) (UniProt P46108)
SHC3 (Homo sapiens) [3] = target: SHC3 (Homo sapiens) (UniProt Q92529)
VAV2 (Homo sapiens) = VAV2 (Homo sapiens) (UniProt P52735)
SLA2 (Homo sapiens) = SLA2 (Homo sapiens) (UniProt Q9H6Q3)
SH2D3A (Homo sapiens) = SH2D3A (Homo sapiens) (UniProt Q9BRG2)
GRB7 (Homo sapiens) [4] = target: GRB7 (Homo sapiens) (UniProt Q14451); remark: listed apart in the source
DAPP1 (Homo sapiens) = DAPP1 (Homo sapiens) (UniProt Q9UN19)
SHC3 (Homo sapiens) [5] = target: SHC3 (Homo sapiens) (UniProt Q92529); remark: listed apart in the source
SHF (Homo sapiens) = SHF (Homo sapiens) (UniProt Q7M4L6)
PLCG2-NC (Homo sapiens) = PLCG2-NC (Homo sapiens) (UniProt P16885)
CRKL (Homo sapiens) [6] = target: CRKL (Homo sapiens) (UniProt P46109); remark: listed apart in the source
GRB7 (Homo sapiens) [7] = target: GRB7 (Homo sapiens) (UniProt Q14451); remark: listed apart in the source
GRB10 (Homo sapiens) = GRB10 (Homo sapiens) (UniProt Q13322)
PLCG2-N (Homo sapiens) = PLCG2-N (Homo sapiens) (UniProt P16885)
BMX (Homo sapiens) = BMX (Homo sapiens) (UniProt P51813)
BTK (Homo sapiens) = BTK (Homo sapiens) (UniProt Q06187)
SHC1 (Homo sapiens) = SHC1 (Homo sapiens) (UniProt P29353)
BLK (Homo sapiens) = BLK (Homo sapiens) (UniProt P51451)
Sequence of BLK (Homo sapiens) (P51451 119-225): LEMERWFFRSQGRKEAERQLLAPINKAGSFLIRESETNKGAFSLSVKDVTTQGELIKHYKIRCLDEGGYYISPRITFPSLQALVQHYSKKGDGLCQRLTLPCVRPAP

Sequence of GRB7 (Homo sapiens) (Q14451 426-532): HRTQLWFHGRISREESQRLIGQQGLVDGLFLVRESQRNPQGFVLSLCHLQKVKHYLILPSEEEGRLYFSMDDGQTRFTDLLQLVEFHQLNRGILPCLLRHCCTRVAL
Sequence of CRKL (Homo sapiens) (P46109 9-107): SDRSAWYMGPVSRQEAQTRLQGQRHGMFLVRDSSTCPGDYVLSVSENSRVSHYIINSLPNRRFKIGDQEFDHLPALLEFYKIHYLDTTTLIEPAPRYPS
Sequence of SHC3 (Homo sapiens) (Q92529 494-594): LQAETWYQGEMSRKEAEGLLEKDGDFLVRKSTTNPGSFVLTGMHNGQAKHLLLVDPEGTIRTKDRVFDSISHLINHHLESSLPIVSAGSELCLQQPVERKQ
Sequence of SHC1 (Homo sapiens) (P29353 483-583): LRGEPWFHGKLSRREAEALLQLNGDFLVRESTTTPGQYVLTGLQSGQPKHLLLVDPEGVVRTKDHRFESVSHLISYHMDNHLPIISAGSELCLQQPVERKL
Sequence of SHC1-PTB (Homo sapiens) (P29353 483-583): as above
Sequence of CRK (Homo sapiens) (P46108 8-123): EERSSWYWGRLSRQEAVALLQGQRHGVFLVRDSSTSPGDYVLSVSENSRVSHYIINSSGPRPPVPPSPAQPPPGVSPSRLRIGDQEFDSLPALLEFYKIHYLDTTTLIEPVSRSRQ
Sequence of PLCG1-C (Homo sapiens) (P19174 545-761): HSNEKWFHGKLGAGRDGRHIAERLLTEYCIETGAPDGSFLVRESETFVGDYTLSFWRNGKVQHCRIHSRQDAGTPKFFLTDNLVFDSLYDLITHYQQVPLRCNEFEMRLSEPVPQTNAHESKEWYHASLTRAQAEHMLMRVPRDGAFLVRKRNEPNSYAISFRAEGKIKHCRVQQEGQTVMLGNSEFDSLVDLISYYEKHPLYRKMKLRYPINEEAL
Sequence of DAPP1 (Homo sapiens) (Q9UN19 30-134): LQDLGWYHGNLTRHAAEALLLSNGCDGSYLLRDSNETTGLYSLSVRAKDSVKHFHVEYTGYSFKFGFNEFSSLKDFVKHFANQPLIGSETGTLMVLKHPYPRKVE
Sequence of SH2D3A (Homo sapiens) (Q9BRG2 10-119): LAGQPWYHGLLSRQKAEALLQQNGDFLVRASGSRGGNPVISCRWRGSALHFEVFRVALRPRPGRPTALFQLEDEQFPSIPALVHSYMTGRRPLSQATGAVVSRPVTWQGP
Sequence of VAV1 (Homo sapiens) (P15498 666-770): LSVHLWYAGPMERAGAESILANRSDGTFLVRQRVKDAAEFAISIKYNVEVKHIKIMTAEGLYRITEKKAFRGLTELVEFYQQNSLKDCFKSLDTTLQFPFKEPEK
Sequence of VAV3 (Homo sapiens) (Q9UKW4 667-771): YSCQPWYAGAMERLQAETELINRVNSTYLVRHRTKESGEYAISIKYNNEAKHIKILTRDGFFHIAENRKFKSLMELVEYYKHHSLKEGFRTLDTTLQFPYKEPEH
Sequence of LYN (Homo sapiens) (P07948 124-231): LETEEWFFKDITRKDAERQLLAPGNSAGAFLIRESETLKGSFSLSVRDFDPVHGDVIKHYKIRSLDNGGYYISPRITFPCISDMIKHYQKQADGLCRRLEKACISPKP
Sequence of BMX (Homo sapiens) (P51813 291-397): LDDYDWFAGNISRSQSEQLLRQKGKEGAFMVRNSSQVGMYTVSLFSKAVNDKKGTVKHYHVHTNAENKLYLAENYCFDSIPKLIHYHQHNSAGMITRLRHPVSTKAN
Sequence of GRB10 (Homo sapiens) (Q13322 488-579): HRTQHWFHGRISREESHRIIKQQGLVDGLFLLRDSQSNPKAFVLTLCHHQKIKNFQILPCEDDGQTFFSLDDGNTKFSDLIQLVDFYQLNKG
Sequence of SHF (Homo sapiens) (Q7M4L6 318-423): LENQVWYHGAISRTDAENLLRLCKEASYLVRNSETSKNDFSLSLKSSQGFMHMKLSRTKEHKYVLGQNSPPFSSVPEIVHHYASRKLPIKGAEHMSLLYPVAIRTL
Sequence of PIK3R1-N (Homo sapiens) (P27986 328-723): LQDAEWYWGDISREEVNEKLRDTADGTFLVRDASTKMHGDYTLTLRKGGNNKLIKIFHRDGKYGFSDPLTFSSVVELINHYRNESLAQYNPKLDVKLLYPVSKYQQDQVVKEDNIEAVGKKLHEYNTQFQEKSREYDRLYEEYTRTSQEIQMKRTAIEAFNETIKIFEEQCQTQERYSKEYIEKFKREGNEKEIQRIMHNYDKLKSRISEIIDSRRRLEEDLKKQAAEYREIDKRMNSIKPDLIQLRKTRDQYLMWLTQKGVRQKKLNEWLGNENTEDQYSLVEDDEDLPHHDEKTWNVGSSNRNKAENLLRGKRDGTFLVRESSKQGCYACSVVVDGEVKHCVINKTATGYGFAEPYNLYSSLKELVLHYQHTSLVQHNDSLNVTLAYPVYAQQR
Sequence of TENC1 (Homo sapiens) (Q63HR2 1135-1252): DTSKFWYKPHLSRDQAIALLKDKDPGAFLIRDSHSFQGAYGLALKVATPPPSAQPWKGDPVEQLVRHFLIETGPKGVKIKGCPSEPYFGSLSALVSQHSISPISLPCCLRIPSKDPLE
Sequence of SLA2 (Homo sapiens) (Q9H6Q3 89-196): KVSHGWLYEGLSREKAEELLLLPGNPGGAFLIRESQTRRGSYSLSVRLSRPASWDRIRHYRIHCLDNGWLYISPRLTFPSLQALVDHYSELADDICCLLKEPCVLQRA
Sequence of FER (Homo sapiens) (P16591 455-555): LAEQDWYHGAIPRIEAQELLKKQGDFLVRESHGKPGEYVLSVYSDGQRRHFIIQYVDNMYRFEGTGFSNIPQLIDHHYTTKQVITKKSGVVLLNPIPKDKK
Sequence of PLCG2-N (Homo sapiens) (P16885 527-740): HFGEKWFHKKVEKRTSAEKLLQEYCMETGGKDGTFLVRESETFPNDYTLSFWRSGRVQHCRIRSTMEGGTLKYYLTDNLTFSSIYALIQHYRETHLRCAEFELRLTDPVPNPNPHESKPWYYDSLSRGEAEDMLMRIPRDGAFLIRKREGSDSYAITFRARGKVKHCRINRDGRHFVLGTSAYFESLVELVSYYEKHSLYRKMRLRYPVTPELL
Sequence of PLCG2-NC (Homo sapiens) (P16885 527-740): as above
Sequence of VAV2 (Homo sapiens) (P52735 668-772): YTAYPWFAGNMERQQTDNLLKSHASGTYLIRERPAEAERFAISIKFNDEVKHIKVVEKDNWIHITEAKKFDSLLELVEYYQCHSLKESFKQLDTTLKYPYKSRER
Sequence of TNS4 (Homo sapiens) (Q8IZW8 444-561): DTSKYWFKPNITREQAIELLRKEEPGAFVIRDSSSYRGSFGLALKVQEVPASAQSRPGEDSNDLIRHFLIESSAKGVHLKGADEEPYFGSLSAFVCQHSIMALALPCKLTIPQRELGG
Sequence of SLA (Homo sapiens) (Q13239 79-180): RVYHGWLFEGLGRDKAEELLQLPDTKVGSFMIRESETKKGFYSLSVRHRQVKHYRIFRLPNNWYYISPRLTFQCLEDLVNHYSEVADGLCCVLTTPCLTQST
Sequence of BTK (Homo sapiens) (Q06187 276-382): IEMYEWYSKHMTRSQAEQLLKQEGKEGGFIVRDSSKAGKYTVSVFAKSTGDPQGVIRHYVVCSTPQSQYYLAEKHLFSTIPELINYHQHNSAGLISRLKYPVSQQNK

## …pYEEMRAFQ
GRB7 (Homo sapiens) [1]
  apparent Kd (screen): 1520 nM
FER (Homo sapiens)
  apparent Kd (screen): 499 nM
FGR (Homo sapiens)
  apparent Kd (screen): 1160 nM
TENC1 (Homo sapiens)
  apparent Kd (screen): 2000 nM
VAV3 (Homo sapiens)
  apparent Kd (screen): 2000 nM
LYN (Homo sapiens)
  apparent Kd (screen): 340 nM

## …pYLIPQQGFd
TNS4 (Homo sapiens)
  apparent Kd (screen): 922 nM
VAV1 (Homo sapiens)
  apparent Kd (screen): 1050 nM
SLA (Homo sapiens)
  apparent Kd (screen): 2000 nM
PIK3R1-N (Homo sapiens)
  apparent Kd (screen): 899 nM
PLCG1-C (Homo sapiens)
  apparent Kd (screen): 2000 nM
CRKL (Homo sapiens) [2]
  apparent Kd (screen): 998 nM
SHC1-PTB (Homo sapiens)
  apparent Kd (screen): 628 nM
CRK (Homo sapiens)
  apparent Kd (screen): 470 nM
SHC3 (Homo sapiens) [3]
  apparent Kd (screen): 216 nM
VAV2 (Homo sapiens)
  apparent Kd (screen): 85 nM

## …pYLVPQQGF
SLA2 (Homo sapiens)
  apparent Kd (screen): 2000 nM
SH2D3A (Homo sapiens)
  apparent Kd (screen): 2000 nM
GRB7 (Homo sapiens) [4]
  apparent Kd (screen): 2000 nM
DAPP1 (Homo sapiens)
  apparent Kd (screen): 2000 nM
SHC3 (Homo sapiens) [5]
  apparent Kd (screen): 2000 nM

## …pYWDQDPPE
SHF (Homo sapiens)
  apparent Kd (screen): 586 nM
PLCG2-NC (Homo sapiens)
  apparent Kd (screen): 2000 nM
CRKL (Homo sapiens) [6]
  apparent Kd (screen): 1460 nM
GRB7 (Homo sapiens) [7]
  apparent Kd (screen): 253 nM
GRB10 (Homo sapiens)
  apparent Kd (screen): 486 nM
PLCG2-N (Homo sapiens)
  apparent Kd (screen): 601 nM
BMX (Homo sapiens)
  apparent Kd (screen): 2000 nM
BTK (Homo sapiens)
  apparent Kd (screen): 2000 nM
SHC1 (Homo sapiens)
  apparent Kd (screen): 2000 nM
BLK (Homo sapiens)
  apparent Kd (screen): 52 nM
